Test results as given in paper PMC4777826, “Crystal Structure of the CTP1L Endolysin Reveals How Its Activity Is Regulated by a Secondary Translation Product*^([image sbox.jpg])” (The Journal of Biological Chemistry, 2015).

Legend:
[1] = molecular target: CD27L endolysin RBSKO mutant (E181S/G182S) (bacteriophage (targets Clostridium difficile)) (UniProt B6SBV8); assay: native MS; nano-ESI of each purified sample by itself (wild-type gene products, CBDHis, RBSKO mutants), 150 mM ammonium acetate pH 7.4
[2] = molecular target: CTP1L endolysin, full-length (wild type) (bacteriophage ΦCTP1); assay: native MS; nano-ESI of the sample made from the codon-optimised CTP1L gene with the silent C→G back mutation (less truncated CBD made), 150 mM ammonium acetate pH 7.4
[3] = molecular target: CTP1L endolysin, full-length (wild type) (bacteriophage ΦCTP1); assay: native MS; nano-ESI of each purified sample by itself (wild-type gene products, CBDHis, RBSKO mutants), 150 mM ammonium acetate pH 7.4
[4] = molecular target: truncated C-terminal cell wall binding domain of CTP1L (secondary translation product) (bacteriophage ΦCTP1); assay: as above
[5] = molecular target: CBDHis, CTP1L(195-274) with a C-terminal His tag (bacteriophage ΦCTP1); assay: as above
[6] = molecular target: CTP1L endolysin K190S/G191S, ribosomal binding site knock-out (RBSKO) (bacteriophage ΦCTP1); assay: native MS; CBDHis titrated to 10 μM full-length CTP1L RBSKO at molar ratios 1:1, 1:2, 1:3 and 1:6 (full-length:CBDHis), 150 mM ammonium acetate pH 7.4; ratios of species from simulated peaks, three measurements
[7] = molecular target: the molecule itself; assay: native MS; nano-ESI of each purified sample by itself (wild-type gene products, CBDHis, RBSKO mutants), 150 mM ammonium acetate pH 7.4

CD27L endolysin RBSKO mutant (E181S/G182S) (from UniProt B6SBV8 1-270) (enzyme)
stoichiometry N [1]: 2

truncated C-terminal cell wall binding domain of CTP1L (secondary translation product) (domain or fragment)
ratio of species, 1:1 heterodimer (C→G sample) (ratio (total 1.0)) [2]: 0.09 | ratio of species, 2 FLCTP1L: 2 CBD heterotetramer (C→G sample) (ratio (total 1.0)) [2]: 0.62 | ratio of species, free FLCTP1L monomer (C→G sample) (ratio (total 1.0)) [2]: 0.28 | ratio of species, 1:1 heterodimer (wild-type sample) (ratio (total 1.0)) [3]: 0.12 | ratio of species, 1 FLCTP1L: 3 CBD heterotetramer (wild-type sample) (ratio (total 1.0)) [3]: 0.14 | ratio of species, 2 FLCTP1L: 2 CBD heterotetramer (wild-type sample) (ratio (total 1.0)) [3]: 0.72 | stoichiometry N [4]: 4

CBDHis, CTP1L(195-274) with a C-terminal His tag (domain or fragment)
stoichiometry N [5]: 2 | ratio of species, 1:1 heterodimer (full-length:CBDHis 1:1) (ratio (total 1.0)) [6]: 0.26 | ratio of species, 1:1 heterodimer (full-length:CBDHis 1:2) (ratio (total 1.0)) [6]: 0.29 | ratio of species, 1:1 heterodimer (full-length:CBDHis 1:3) (ratio (total 1.0)) [6]: 0.27 | ratio of species, 1:1 heterodimer (full-length:CBDHis 1:6) (ratio (total 1.0)) [6]: 0.31 | ratio of species, 1 FLCTP1L: 3 CBDHis heterotetramer (full-length:CBDHis 1:1) (ratio (total 1.0)) [6]: 0.09 | ratio of species, 1 FLCTP1L: 3 CBDHis heterotetramer (full-length:CBDHis 1:2) (ratio (total 1.0)) [6]: 0.19 | ratio of species, 1 FLCTP1L: 3 CBDHis heterotetramer (full-length:CBDHis 1:3) (ratio (total 1.0)) [6]: 0.27 | ratio of species, 1 FLCTP1L: 3 CBDHis heterotetramer (full-length:CBDHis 1:6) (ratio (total 1.0)) [6]: 0.38 | ratio of species, 2 FLCTP1L: 2 CBDHis heterotetramer (full-length:CBDHis 1:1) (ratio (total 1.0)) [6]: 0.3 | ratio of species, 2 FLCTP1L: 2 CBDHis heterotetramer (full-length:CBDHis 1:2) (ratio (total 1.0)) [6]: 0.32 | ratio of species, 2 FLCTP1L: 2 CBDHis heterotetramer (full-length:CBDHis 1:3) (ratio (total 1.0)) [6]: 0.26 | ratio of species, 2 FLCTP1L: 2 CBDHis heterotetramer (full-length:CBDHis 1:6) (ratio (total 1.0)) [6]: 0.17 | ratio of species, free FLCTP1L monomer (full-length:CBDHis 1:1) (ratio (total 1.0)) [6]: 0.4 | ratio of species, free FLCTP1L monomer (full-length:CBDHis 1:2) (ratio (total 1.0)) [6]: 0.2 | ratio of species, free FLCTP1L monomer (full-length:CBDHis 1:3) (ratio (total 1.0)) [6]: 0.2 | ratio of species, free FLCTP1L monomer (full-length:CBDHis 1:6) (ratio (total 1.0)) [6]: 0.14

truncated C-terminal cell wall binding domain of CTP1L (secondary translation product)
ratio of species, free FLCTP1L monomer (wild-type sample) (ratio (total 1.0)) [3]: 0.03

B1: CD27L endolysin, full-length (wild type) (enzyme, UniProt B6SBV8 1-270, looked up)
chain: MKICITVGHSILKSGACTSADGVVNEYQYNKSLAPVLADTFRKEGHKVDVIICPEKQFKTKNEEKSYKIPRVNSGGYDLLIELHLNASNGQGKGSEVLYYSNKGLEYATRICDKLGTVFKNRGAKLDKRLYILNSSKPTAVLIESFFCDNKEDYDKAKKLGHEGIAKLIVEGVLNKNINNEGVKQMYKHTIVYDGEVDKISATVVGWGYNDGKILICDIKDYVPGQTQNLYVVGGGACEKISSITKEKFIMIKGNDRFDTLYKALDFINR
notes: CD27L endolysin, a bacteriophage endolysin that targets Clostridium difficile; The wild-type sample also holds the truncated CBD; also called FLCD27L; source: E. coli BL21(DE3), pET15b, purified (Ni-NTA)
stoichiometry N [7]: 2
